Literature values as cited in PMC12858339.

Biological target: Calmodulin (Homo sapiens) (UniProt P0DP23)

HIV-1 MA MA (from UniProt O93182)
Kd: 2000 nM
